Test results taken from patent US20240294651A1 (KYMAB, published 2024).

Legend:
[1] = molecular target: T1, CXCR4 StaR nanodiscs; assay: SPR (Biacore T200), IgG4-PE antibody captured by anti-IgG on CM5, CXCR4 StaR nanodiscs at 250 nM as analyte, 25 C, 1:1 model; N = 1
T1 construct: Purified receptor in lipid-protein nanodiscs; also called StaR CXCR4; thermostabilised CXCR4
Protocol: Anti-IgG antibodies were immobilised on chip CM5 (GE Healthcare) by amine coupling. […] A channel with no anti-CXCR4 antibodies captured was used as a reference. […] The blank-subtracted sensorgrams were fitted to the 1:1 interaction model using the Biacore T200 evaluation software. The assay was run at 25° C. using 0.01 M HEPES pH 7.4, 0.15 M NaCl as running buffer.

[2] = molecular target: T2, human CXCR4 (cell-expressed) (human, UniProt P61073 1-352); assay: cell-based or functional assay
T2 sequence (P61073 whole entry): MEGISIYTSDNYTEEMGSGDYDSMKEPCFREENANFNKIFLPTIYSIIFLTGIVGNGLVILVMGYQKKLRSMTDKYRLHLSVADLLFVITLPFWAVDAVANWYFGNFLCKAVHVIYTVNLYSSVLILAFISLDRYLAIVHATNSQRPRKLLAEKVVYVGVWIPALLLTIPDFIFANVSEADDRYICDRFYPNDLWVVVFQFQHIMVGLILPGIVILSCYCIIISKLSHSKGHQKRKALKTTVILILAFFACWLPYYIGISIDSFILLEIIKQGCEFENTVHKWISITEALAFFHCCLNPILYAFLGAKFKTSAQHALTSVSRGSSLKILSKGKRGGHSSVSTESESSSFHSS

[3] = molecular target: T2, human CXCR4 (cell-expressed); assay: cell-based or functional assay; remark: listed apart in the source
[4] = molecular target: T3, cynomolgus CXCR4 (cynomolgus monkey, UniProt Q28474 1-352); assay: flow cytometry on CHO-S cells expressing cynomolgus CXCR4
T3 construct: also called cyno CXCR4; cynomolgus monkey CXCR4
T3 sequence (Q28474 whole entry): as the sequence (P61073 whole entry) above, with M24I, N35H, K38R, R146K, N176S counted along it
Protocol: Cynomolgus monkey CXCR4 expressing CHO-S cells were plated at 100 uL/well of cells at 1 million of cells/mL (0.1 million of cells/well) into a 96 well V-bottom plate (Greiner). Plates were centrifuged at 300×g for 3 min at 4° C. and supernatant discarded. […] Primary antibody dilutions were added to cells (50 μL/well) and cell pellets resuspended by pipetting. Plates was incubated for 1 h at 4° C. 100 μL/well of PBS, was added and plates centrifuged at 300×g for 3 min at 4° C. and supernatant discarded. This step was repeated twice. […] Cells were resuspended by pipetting. Plates were incubated for 1 h at 4° C. 100 μL/well PBS, was added and plates centrifuged at 300×g for 3 min at 4° C. and supernatant discarded. This step was repeated twice. Finally, cells were resuspended in 100 μL/well of PBS and analysed on CytoFLEX (Beckman Coulter).
Binding of antibodies to cynomolgus CXCR4 expressed on CHO-S cells was analysed by gating the main cell population using forward and side scatter (Flow Jo, Flow Jo LLC) to allow for doublet discrimination. […] EC₅₀ values were calculated by transforming the data and fitting a 4-parameter logistic regression curve to each antibody titration.

[5] = molecular target: T4, human CXCR7 (human, UniProt P25106 1-362); assay: flow cytometry on CHO-S cells expressing human CXCR7, Alexa Fluor 647 secondary antibody, GeoMean (647 nm)
T4 construct: Expressed on CHO-S cells
T4 sequence (P25106 whole entry): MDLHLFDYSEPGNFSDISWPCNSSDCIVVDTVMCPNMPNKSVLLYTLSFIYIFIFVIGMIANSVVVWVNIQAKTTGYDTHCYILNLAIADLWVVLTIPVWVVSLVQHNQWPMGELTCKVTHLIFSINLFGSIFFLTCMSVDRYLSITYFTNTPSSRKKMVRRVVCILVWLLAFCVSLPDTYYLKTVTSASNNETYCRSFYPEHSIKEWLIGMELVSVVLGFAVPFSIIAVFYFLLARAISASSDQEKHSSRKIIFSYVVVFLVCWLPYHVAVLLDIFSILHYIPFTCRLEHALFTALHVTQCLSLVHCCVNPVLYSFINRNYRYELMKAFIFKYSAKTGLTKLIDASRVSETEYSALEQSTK
Protocol: CXCR7 expressing CHO-S cells were plated at 100 μL/well of cells at 1 million of cells/mL (0.1 million of cells/well) into a 96 well V-bottom plate (Greiner). Plates were centrifuged at 300×g for 3 min at 4° C. and supernatant discarded. […] Primary antibody dilutions were added to cells (100 μL/well) and cell pellets resuspended by pipetting. Plate was incubated for 1 h at 4° C. 100 μL/well of PBS, was added and plates centrifuged at 300×g for 3 min at 4° C. and supernatant discarded. This step was repeated twice. […] Cells were resuspended by pipetting. Plate was incubated for 1 h at 4° C. 100 μL/well of PBS, was added and plates centrifuged at 300×g for 3 min at 4° C. and supernatant discarded. This step was repeated twice. Finally, cells were resuspended in 100 μL/well of PBS and analysed on CytoFLEX (Beckman Coulter).
Binding of antibodies to CXCR7 expressed on CHO-S cells was analysed by gating the main cell population using forward and side scatter (Flow Jo, Flow Jo LLC) to allow for doublet discrimination.

[6] = molecular target: T5, terbium-labelled SNAP-CXCR4 on HEK-293 cells (Cisbio C1TT1CXCR4) (human, UniProt P61072 1-352 (Pan troglodytes entry), terbium label on the SNAP tag); assay: TR-FRET (Tag-lite) competition with AlexaFluor 647-CXCL12 on terbium-labelled SNAP-CXCR4 HEK-293 cells
T5 construct: Bought assay-ready cells; also called CXCR4 expressing cells; not shown: SNAP tag
T5 sequence (P61072 whole entry): as the sequence (P61073 whole entry) above

[7] = molecular target: T2, human CXCR4 (cell-expressed); assay: cell-based or functional assay; remark: listed apart in the source
[8] = molecular target: T3, cynomolgus CXCR4; assay: cell-based or functional assay
[9] = molecular target: T2, human CXCR4 (cell-expressed); assay: cell-based or functional assay; remark: listed apart in the source
[10] = molecular target: T2, human CXCR4 (cell-expressed); assay: cell-based or functional assay; remark: listed apart in the source
[11] = molecular target: T2, human CXCR4 (cell-expressed); assay: cell-based or functional assay; remark: listed apart in the source
[12] = molecular target: T2, human CXCR4 (cell-expressed); assay: cell-based or functional assay; remark: listed apart in the source
[13] = molecular target: T6, biotinylated CXCR4-virus like particle (Integral Molecular, Lot INT-1793B) (human, UniProt P61073 1-352, VLP biotinylated, sites not stated); assay: SPR (Biacore 8K), biotinylated CXCR4 VLP captured on SA chip, Fab as analyte, 25 C, 1:1 model
T6 construct: also called hCXCR4 VLP; CXCR4 VLP
T6 sequence (P61073 whole entry): as above

B1: CL-82574 (antibody, human IgG4 S228P, kappa)
heavy: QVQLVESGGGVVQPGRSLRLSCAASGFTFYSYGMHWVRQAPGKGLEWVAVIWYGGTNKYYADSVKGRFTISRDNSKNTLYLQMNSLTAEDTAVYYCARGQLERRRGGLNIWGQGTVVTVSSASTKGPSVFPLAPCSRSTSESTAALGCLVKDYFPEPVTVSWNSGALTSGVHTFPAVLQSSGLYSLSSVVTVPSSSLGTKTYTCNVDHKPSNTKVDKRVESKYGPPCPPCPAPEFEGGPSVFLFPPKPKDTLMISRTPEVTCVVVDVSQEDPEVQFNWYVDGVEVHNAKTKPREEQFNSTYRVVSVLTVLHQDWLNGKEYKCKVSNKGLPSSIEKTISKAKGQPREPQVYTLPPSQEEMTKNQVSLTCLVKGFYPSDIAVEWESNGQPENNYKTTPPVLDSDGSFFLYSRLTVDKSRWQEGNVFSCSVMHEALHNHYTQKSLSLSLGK
light: DIQMTQSPSSLSASVGDRVTITCRASQGVRDDLGWYQQKPGKAPKRLIYAASSLQSGVPSRFSGSGSGTEFTLTISSLQPEDFATYYCLQHNSYPFTFGPGTKVDIKRTVAAPSVFIFPPSDEQLKSGTASVVCLLNNFYPREAKVQWKVDNALQSGNSQESVTEQDSKDSTYSLSSTLTLSKADYEKHKVYACEVTHQGLSSPVTKSFNRGEC
notes: Tested in human IgG4-PE format; also called CL-82574 (IgG4-PE format)
[1]
  Kd: 8000 pM
  koff: 0.00088 s⁻¹
  kon: 110000 M⁻¹ s⁻¹
[2]
  % Max Inhibition, cAMP HTRF assay, CXCR4 BacMam HEK-293 cells: 96%
  IC50, cAMP HTRF assay, CXCR4 BacMam HEK-293 cells, 5.5 nM CXCL12: 21000 pM
[3]
  % of max migration at 120 nM Ab, primary naïve T-cell trans-well migration: 5.44%
  IC50, primary naïve T-cell trans-well migration: 950 pM
[4]
  EC50: 3500 pM
[5]
  binding result: no binding (tested: log(M) about -6.9 (about 1.2e-7 M))
[6]
  % Max Inhibition: 98%
  IC50: 630 pM
[7]
  IC50 of antibody in presence of 30 nM CXCL12, human T-cell transwell chemotaxis: 0.21 not printed (nM assumed)
[8]
  % Maximum Inhibition, cAMP HTRF assay, cyno CXCR4 BacMam HEK-293 cells: 90%
  IC50, cAMP HTRF assay, cyno CXCR4 BacMam HEK-293 cells: 1200 pM
[9]
  % effect (remaining % of CXCL12 response), DMR assay, human T-cells: 0.68%
  IC50, label-free DMR assay, isolated human T-cells, EC80 CXCL12: 2090 pM
[10]
  % Max Inhibition, beta-arrestin reporter assay, Tango CXCR4-bla U2OS cells: 99.5%
  IC50, beta-arrestin reporter assay, Tango CXCR4-bla U2OS cells, 30 nM CXCL12: 140 pM
[11]
  IC50 n = 1, Jurkat chemotaxis towards 30 nM CXCL12 (IncuCyte): 320 pM
  IC50 n = 2, Jurkat chemotaxis towards 30 nM CXCL12 (IncuCyte): 620 pM
  IC50 n = 3, Jurkat chemotaxis towards 30 nM CXCL12 (IncuCyte): 630 pM
  Mean IC50, Jurkat chemotaxis towards 30 nM CXCL12 (IncuCyte): 520 pM
[12]
  Max Signal (Total Overlap Object Area), internalisation on Ramos cells, live-cell imaging: 18100 µm^2 per image

B2: CL-83083 Fab fragment (Fab, V domains shown)
VH: EVQLVESGGGLVQPGGSLKLSCAASGFTFSGSAMHWVRQASGKGLEWVGRIRSKANKYATAYAASVKGRFTISRDDSKNTAYVQMKSLKTEDTAVYYCTWELSNYDILTGFYYGMDVWGQGTTVTVSS
VL: QAGLTQPPSVSKGLRQTATLTCTGNSNNVGNLGAAWLQQHQGHPPKLLSYRNNNRPSGISERFFASRSGNTASLTITGLQPEDEADYYCSAWDSSLSAWVFGGGTKLTVL
notes: Purified Fab fragment
[13]
  Kd: 1860 pM
  koff: 0.00102 s⁻¹
  kon: 546000 M⁻¹ s⁻¹

B3: CL-82574 Fab fragment (Fab, V domains shown)
VH: QVQLVESGGGVVQPGRSLRLSCAASGFTFYSYGMHWVRQAPGKGLEWVAVIWYGGTNKYYADSVKGRFTISRDNSKNTLYLQMNSLTAEDTAVYYCARGQLERRRGGLNIWGQGTVVTVSS
VL: DIQMTQSPSSLSASVGDRVTITCRASQGVRDDLGWYQQKPGKAPKRLIYAASSLQSGVPSRFSGSGSGTEFTLTISSLQPEDFATYYCLQHNSYPFTFGPGTKVDIK
notes: Purified Fab fragment
[13]
  Kd: 520 pM
  koff: 0.000481 s⁻¹
  kon: 927000 M⁻¹ s⁻¹

B4: CL-82658 Fab fragment (Fab, V domains shown)
VH: QVQLVESGGGVVQPGRSLRLSCAASGFSFSSYGMHWVRQAPGKGLEWVAVISYDGSNKYYADSVKGRFTISRDNSKNTLYLQMNSLRGEDTAVYYCSKGSLTPRRGYYYSYGMDVWGQGTTVTVSS
VL: DIQMTQSPSSLSASVGDRVTITCRASQGIRNDLSWYQQKPGKAPKRLIYAASSLQSGVPSRFSGSGSGTEFTLTISSLQPEDFATYYCLQHNGYPFTFGPGTKVDIK
notes: Purified Fab fragment
[13]
  Kd: 690 pM
  koff: 0.000423 s⁻¹
  kon: 616000 M⁻¹ s⁻¹
